From US20230057263A1 (CYTOMX THERAPEUTICS, published 2023)
No end group written: not given here. *: point of attachment. Biotin = O=C1N[C@H]2[C@H](CS[C@H]2CCCCC(=O)*)N1; code X = not defined here

Assays:
[1] = biological target: T1, (H2N-KEFSELEQSGYYVCYPRGSNPEDA-OH) vCD3e #p3-BSA (conjugated to BSA); assay: Luminex bead assay [Cont.]
T1 construct: also called control peptide #p3
T1 peptide: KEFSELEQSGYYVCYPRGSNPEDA
Description: (§1) A set of experiments was performed to map the epitope recognized by the anti-CD3ε antibodies. In these experiments, the anti-CD3ε antibodies were assessed for binding to a collection of overlapping 15-mer peptides spanning amino acids 1-27 of human CD3ε protein using a Luminex bead assay. Control CD3 proteins, control peptides, or the test peptides were immobilized on Luminex beads and incubated with a panel of anti-CD3 antibodies. Binding of the anti-CD3 antibodies to the peptide/protein immobilized on the Luminex bead was detected by R-Phycoerythrin conjugated secondary antibody.
(§2) Recombinant CD3 proteins (human CD3d/e heterodimer and cynomolgus CD3-epsilon (Sinobiological)) and control peptides (#p1, #p2, and #p3) were conjugated to Luminex beads using standard EDC/Sulfo-NHS chemistry. The 15-mer test peptides were synthesized as biotinylated peptides at JPT Peptide Technologies Gmbh and were immobilized on streptavidin-conjugated Luminex beads that were made using standard EDC/Sulfo-NHS chemistry and streptavidin (Invitrogen Cat. No. 434301 lot 1626028A). The Luminex beads with immobilized peptides or reagents were incubated with 50 ul of a panel of anti-CD3 antibodies (1 ug/ml) for one hour at room temperature, washed two times, incubated with mixture of anti-human and anti-mouse IgG-RPE (Jackson Immunoresearch 109-116-097 and Southern Biotech 1030-09, respectively) for 30 mins at RT, washed three times, and analyzed in the Luminex instrument to assess the level of bound anti-CD3 antibodies.

[2] = biological target: T2, B X GNEEMGGITQTPYKV (reading uncertain); assay: Luminex bead assay [Cont.]
T2 construct: row 4 of the chart; also called biotinylated 15-mer, residues 3-17
T2 peptide: {Biotin-code X}-GNEEMGGITQTPYKV
Description: as §1, §2

[3] = biological target: T3, B X NEEMGGITQTPYKVS (reading uncertain); assay: Luminex bead assay [Cont.]
T3 construct: row 5 of the chart; also called biotinylated 15-mer, residues 4-18
T3 peptide: {Biotin-code X}-NEEMGGITQTPYKVS
Description: as §1, §2

[4] = biological target: T4, B X EEMGGITQTPYKVSI (reading uncertain); assay: Luminex bead assay [Cont.]
T4 construct: row 6 of the chart; also called biotinylated 15-mer, residues 5-19
T4 peptide: {Biotin-code X}-EEMGGITQTPYKVSI
Description: as §1, §2

[5] = biological target: T5, B X EMGGITQTPYKVSIS (reading uncertain); assay: Luminex bead assay [Cont.]
T5 construct: row 7 of the chart; also called biotinylated 15-mer, residues 6-20
T5 peptide: {Biotin-code X}-EMGGITQTPYKVSIS
Description: as §1, §2

[6] = biological target: T6, B X MGGITQTPYKVSISG (reading uncertain); assay: Luminex bead assay [Cont.]
T6 construct: row 8 of the chart; also called biotinylated 15-mer, residues 7-21
T6 peptide: {Biotin-code X}-MGGITQTPYKVSISG
Description: as §1, §2

[7] = biological target: T7, B X GGITQTPYKVSISGT (reading uncertain); assay: Luminex bead assay [Cont.]
T7 construct: row 9 of the chart; also called biotinylated 15-mer, residues 8-22
T7 peptide: {Biotin-code X}-GGITQTPYKVSISGT
Description: as §1, §2

[8] = biological target: T8, B X GITQTPYKVSISGTT (reading uncertain); assay: Luminex bead assay [Cont.]
T8 construct: row 10 of the chart; also called biotinylated 15-mer, residues 9-23
T8 peptide: {Biotin-code X}-GITQTPYKVSISGTT
Description: as §1, §2

[9] = biological target: T9, B X ITQTPYKVSISGTTV (reading uncertain); assay: Luminex bead assay [Cont.]
T9 construct: row 11 of the chart; also called biotinylated 15-mer, residues 10-24
T9 peptide: {Biotin-code X}-ITQTPYKVSISGTTV
Description: as §1, §2

[10] = biological target: T10, B X TQTPYKVSISGTTVI (reading uncertain); assay: Luminex bead assay [Cont.]
T10 construct: row 12 of the chart; also called biotinylated 15-mer, residues 11-25
T10 peptide: {Biotin-code X}-TQTPYKVSISGTTVI
Description: as §1, §2

[11] = biological target: T11, B X QTPYKVSISGTTVIL (reading uncertain); assay: Luminex bead assay [Cont.]
T11 construct: row 13 of the chart; also called biotinylated 15-mer, residues 12-26
T11 peptide: {Biotin-code X}-QTPYKVSISGTTVIL
Description: as §1, §2

[12] = biological target: T12, B X TPYKVSISGTTVILT (reading uncertain); assay: Luminex bead assay [Cont.]
T12 construct: row 14 of the chart; also called biotinylated 15-mer, residues 13-27
T12 peptide: {Biotin-code X}-TPYKVSISGTTVILT
Description: as §1, §2

[13] = biological target: T13, B X QAGNEEMGGITQTP (reading uncertain); assay: Luminex bead assay [Cont.]
T13 construct: row 16 of the chart; also called alanine-scan peptide D2A
T13 peptide: {Biotin-code X}-QAGNEEMGGITQTP
Description: as §1, §2

[14] = biological target: T14, B X QDANEEMGGITQTP (reading uncertain); assay: Luminex bead assay [Cont.]
T14 construct: row 17 of the chart; 14 residues; also called alanine-scan peptide G3A
T14 peptide: {Biotin-code X}-QDANEEMGGITQTP
Description: as §1, §2

[15] = biological target: T15, B X QDGAEEMGGITQTP (reading uncertain); assay: Luminex bead assay [Cont.]
T15 construct: row 18 of the chart; 14 residues; also called alanine-scan peptide N4A
T15 peptide: {Biotin-code X}-QDGAEEMGGITQTP
Description: as §1, §2

[16] = biological target: T16, BSA alone (bovine, UniProt P02769); assay: Luminex bead assay [Cont.]
T16 construct: carrier protein without peptide
Description: as §1, §2

[17] = biological target: T17, human CD3 epsilon (CD3ε) (human, UniProt P07766 23-207); assay: flow cytometry on human T cells
T17 construct: Present on donor human T cells as part of the TCR-CD3 complex; also called CD3ε on human T cells
Description: In these experiments, human or cynomolgus T cells were incubated with an anti-CD3ε antibody and binding was assessed by flow cytometry.
Briefly, donor T cells from either human or cynomolgus donors were resuspended in FACS buffer containing 0.1% sodium azide and aliquoted in 100 μL volumes. For incubation, 100 μL aliquots of donor T cells were mixed with 50 μL of antibodies diluted in FACS buffer containing 0.1% sodium azide. The cells were then washed twice with FACS buffer containing sodium azide. The bound antibody was detected by incubating cells for 60 minutes with a 1:200 dilution of SAV-RPE (Invitrogen Cat No. SA10044, Lot. 1542820A) or 1:100 dilution of goat-anti-Mouse Fcγ-RPE (Jackson Cat. No. 115-116-071, Lot. 108668, diluted in 0.2% goat serum). The cells were washed, fixed, and analyzed with an Accuri Flow Cytometer.
Treatment with OKT3, SP34-2, and diL2K antibodies were used as positive controls for T cell binding. […] Treatment with OKT3, SP34-2, and diL2K antibodies were used as controls for T cell binding with only SP34-2 binding to cynomolgus T cells, as expected.

[18] = biological target: T18, B X QDGNEAMGGITQTP (reading uncertain); assay: Luminex bead assay, 1 ug/ml antibody [Cont.]
T18 construct: row 20 of the chart; 14 residues; also called alanine-scan peptide E6A
T18 peptide: {Biotin-code X}-QDGNEAMGGITQTP
Description: as §1, §2

T16 sequence (P02769 25-607 limits assumed): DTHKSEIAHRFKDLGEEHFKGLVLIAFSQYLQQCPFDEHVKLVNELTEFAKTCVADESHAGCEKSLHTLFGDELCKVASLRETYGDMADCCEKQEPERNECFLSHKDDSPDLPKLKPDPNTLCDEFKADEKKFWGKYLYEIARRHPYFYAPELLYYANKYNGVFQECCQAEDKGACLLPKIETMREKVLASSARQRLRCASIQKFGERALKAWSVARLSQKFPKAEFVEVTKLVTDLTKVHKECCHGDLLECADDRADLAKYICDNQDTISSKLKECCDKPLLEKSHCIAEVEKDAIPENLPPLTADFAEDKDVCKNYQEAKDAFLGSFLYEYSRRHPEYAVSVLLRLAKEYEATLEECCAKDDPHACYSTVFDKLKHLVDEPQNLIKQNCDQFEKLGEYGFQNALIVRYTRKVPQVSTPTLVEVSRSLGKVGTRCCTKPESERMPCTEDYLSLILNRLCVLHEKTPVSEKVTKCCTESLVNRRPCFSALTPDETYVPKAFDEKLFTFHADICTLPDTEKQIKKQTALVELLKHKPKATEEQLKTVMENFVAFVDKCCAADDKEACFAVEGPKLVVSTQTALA

B1: 6d59 (antibody, V domains shown)
VH: QVHLVESGGGVVQPGRSLRLSCAASGFKFRSYGMHWVRQAPGKGLEWVAIIWYDGSKRYYADSVKGRFTISRDNSKNTLYLQMSSLRAEDTAVYYCARDLITGTTDYWGQGTLVTVSS
VL: DVVMTQSPLSLPVTLGQPASISCRSSRSLVYSDGNTHLIWFQQRPGQSPRRLIYRVSNRVSGVPDRFSGSGSGTDFTLKISRVEAEDVGVYYCLQGAHWPYTFGQGTKLEIKR
notes: also called 6d59.1; VCD3-6d59.1
[1]
  binding result: no binding (tested: 1 ug/ml)
[2]
  binding result: no binding (tested: 1 ug/ml)
[3]
  binding result: no binding (tested: 1 ug/ml)
[4]
  binding result: no binding (tested: 1 ug/ml)
[5]
  binding result: no binding (tested: 1 ug/ml)
[6]
  binding result: no binding (tested: 1 ug/ml)
[7]
  binding result: no binding (tested: 1 ug/ml)
[8]
  binding result: no binding (tested: 1 ug/ml)
[9]
  binding result: no binding (tested: 1 ug/ml)
[10]
  binding result: no binding (tested: 1 ug/ml)
[11]
  binding result: no binding (tested: 1 ug/ml)
[12]
  binding result: no binding (tested: 1 ug/ml)
[13]
  binding result: no binding (tested: 1 ug/ml)
[14]
  binding result: no binding (tested: 1 ug/ml)
[15]
  binding result: no binding (tested: 1 ug/ml)
[16]
  binding result: no binding (tested: 1 ug/ml)
[17]
  EC50 (read off the curve): ~0.06 nM
[18]
  Luminex signal: 1480
